Assay results taken from patent US11517591B2, “Immunogenic peptides specific to BCMA and TACI antigens” (Dana-Farber Cancer Institute, Inc., priority 2017, dated 2022).

Experiments:
HLA-A2 molecule [1] = molecular target: T1, HLA-A2 molecule (Homo sapiens, UniProt P04439, D140Y/D185E/D98H/E176V/E277Q/G131W/G231S/I119V/I121R/I166T/I218V/L300P/L318F/N151K/N90K/P208A/P217A/Q86G/Q94H/R138H/R169H/T345S); assay: HLA-A2 binding affinity assay on peptide-pulsed T2 cells (HLA-A2 up-regulation, flow cytometry MFI)
T1 construct: endogenous in cells; host or cells: T2 cell line (human B and T cell hybrid), provided by Dr. J. Molldrem
Experimental: The listed BCMA peptides were evaluated for HLA-A2-specific binding capacity using the T2 cell line. In the assay, T2 cells were washed, resuspended in serum-free AIM-V medium to a final concentration of 1×10^6 cells/ml and transferred into wells of a 24-well tissue culture plate. The cells were pulsed with different concentrations of respective BCMA peptide (0-200 μg/ml) plus 3 μg/ml human β2-microglobulin (Sigma) and incubated at 37° C., 5% CO2 in humidified air. Following overnight incubation, the cells were washed, stained with mouse anti-human HLA-A2-FITC mAb for 15 minutes at 4° C., washed and analyzed using a FACSort™ flow cytometer with CellQuest™ v2.1 software (Becton Dickinson, San Jose, Calif.). […] Among the BCMA peptides evaluated, “#4. […] (FIG. 2).
(§1) T2 cells were pulsed overnight with various doses of peptide plus β2-microglobulin (3 μg/ml) (Sigma, St Louis, Mo.). Following overnight incubation, the cells were stained with HLA-A2-PE mAb and analyzed using a FACSCanto™ flow cytometer (BD). Peptide/HLA-A2 complex stability was measured on peptide loaded T2 cells at 0, 2, 4, 6 and 14 hours post-brefeldin A treatment by staining with HLA-A2-PE mAb and flow cytometric analysis.
as §1, with “concentrations” for “doses”, “The stability of peptide/HLA-A2” for “Peptide/HLA-A2”, “binding” for “stability”, “treatment followed” for “treatment”

HLA-A2 molecule [2] = molecular target: T1, HLA-A2 molecule; assay: Peptide/HLA-A2 complex stability on peptide-loaded T2 cells post-brefeldin A; assay type: binding
Experimental: The native and heteroclitic BCMA and TACI peptides were examined for HLA-A2 binding stability using the T2 cell line. T2 cells were pulsed with the respective peptide. After overnight incubation, the cells were washed to remove unbound peptide; they were evaluated for binding affinity as shown above and stability as following. The cells were incubated with 10 μg/ml Brefeldin A (Sigma) at 37° C. and 5% CO2 for 1 hour to block cell surface expression of newly synthesized HLA-A2 molecules. Peptide/HLA-A2 binding stability was evaluated at 0, 2, 4, 6 and 18 hours post-Brefeldin A treatment. Following the incubation period, the cells were harvested, washed, stained with mouse anti-human HLA-A2-FITC mAb and analyzed by flow cytometry. […] Therefore, the Heteroclitic #4 BCMA72-80 (YLMFLLRKI (SEQ ID NO: 13)) and Heteroclitic #3. TACI154-162 (YLSADQVAL (SEQ ID NO: 16) peptides were selected for further evaluation of their immunogenic potential to generate MM-specific cytotoxic T cells (CTLs).
as §1
as §1, with “concentrations” for “doses”, “The stability of peptide/HLA-A2” for “Peptide/HLA-A2”, “binding” for “stability”, “treatment followed” for “treatment”

YLMFLLRKI [heteroclitic BCMA72-80, heteroclitic BCMA peptide]
HLA-A2 binding affinity, heteroclitic vs native peptide (HLA-A2 molecule [1]; Example 4, FIGS. 4 and 5): increased from their native peptide
change in HLA-A2 binding affinity of heteroclitic BCMA peptide compared to native peptide (HLA-A2 molecule [1]; Example 12, n=3, p<0.05): highest increase in HLA-A2 binding affinity
HLA-A2 binding stability, heteroclitic vs native peptide (HLA-A2 molecule [2]; 50 ug/ml, 0, 2, 4, 6 and 18 hours post-Brefeldin A, Example 4, FIGS. 6 and 7): significant improvement in their HLA-A2 affinity at all the time points evaluated
HLA-A2 affinity and stability at each time point, compared with HIV-Gag77-85 positive control (HLA-A2 molecule [2]; Example 12): highest level of HLA-A2 affinity and stability
HLA-A2 stability of heteroclitic vs native BCMA peptide (HLA-A2 molecule [2]; Example 12): further enhanced
